Test results: patent US20210032312A1 (Janssen / Centocor, published 2021)

Assays:
[1] = target: T1, In house human CD8A-Fc (human, UniProt P01732 22-182, limits assumed); assay: SPR (ProteOn), captured hCD8A-Fc
T1 construct: Captured on goat anti-human Fc on a ProteOn GLC chip; also called hCD8A-Fc; recombinant human CD8 alpha; not shown: linker with flag (and polyhistidine) tag and Fc of human IgG1
Experimental: Purified anti-CD8A FN3 domains were subjected to off-rate analysis using a Proteon surface plasmon resonance instrument in order to pick clones with the slowest off-rates for further characterization.
The immobilized GAH-Fc IgG densities averaged about 6000 Response Units (Ru) with less than 1% variation among different channels. In house human CD8A-Fc was captured in vertical orientation at 3 different ligand densities, 10, 5, 2.5 μg/ml for 5 minutes at 30 ul/minute flowrate. All FN3 domains were normalized to a 3 μM concentration, and tested for binding in horizontal orientation. All 6 analyte channels were used for FN3 domains to maximize the screening throughput. The dissociation phase was monitored for 15 minutes at a flow rate of 100 μl/min using PBST as running buffer. […] Data analyses were performed using Bio-Rad ProteOn Manager software (version 3.1.0.6). Raw data were double referenced by subtraction of the interspot (empty chip surface, no protein immobilized or captured) signals to correct the non-specific binding of the FN3 domain to the pre-coated GAH-Fc IgG surface, followed by a double correction using empty channel L6 where no hCD8A-Fc was captured. The processed binding data were locally fit to a 1:1 simple Langmuir binding model to extract the koff for each FN3 domain binding to captured hCD8A-Fc.

[2] = target: T2, cynomolgus monkey CD8A on primary cynomolgus monkey CD8+ T cells (cynomolgus monkey, UniProt P01732 23-235 (human entry)); assay: flow cytometry, cyno CD8+ T cells, 2 uM FN3
T2 construct: also called Cyno CD8alpha
T2 sequence (P01732 other isoform, or with tags, fused parts or gaps limits assumed): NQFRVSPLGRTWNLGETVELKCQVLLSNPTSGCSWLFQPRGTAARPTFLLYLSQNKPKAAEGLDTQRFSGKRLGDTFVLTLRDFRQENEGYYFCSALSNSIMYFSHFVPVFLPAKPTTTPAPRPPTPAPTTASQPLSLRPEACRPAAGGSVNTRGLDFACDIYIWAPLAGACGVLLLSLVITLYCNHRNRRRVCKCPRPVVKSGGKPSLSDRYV
Experimental: (§1) Binding of the 190 ELISA hits to human and cynomologous monkey primary CD8 T cells was assessed by flow cytometry. The FN3 domain molecules were diluted to 2 μM and 0.2 μM in PBS and incubated with human or cynomologous monkey CD8+ T cells in 96-well format. After 1 hour at 4 C, the cells were washed once with PBS and then resuspended with an anti-FN3 domain antibody (PAB25) solution. Following this incubation, the cells were washed twice with PBS and a PE conjugated secondary antibody and a viability dye were added. Finally, cells were washed and resuspended in PBS for flow cytometric analysis using a BD Canto Instrument. Cells were gating on live cells and median fluorescence intensity of the bound Centyrins (PE channel) was calculated using Cytobank software.

[3] = target: T3, human CD8 alpha (CD8A) on primary human CD8+ T cells (human, UniProt P01732 22-235); assay: flow cytometry, human CD8+ T cells, 2 uM FN3
T3 construct: whole, on cells; also called hCD8A
T3 sequence (P01732 22-235): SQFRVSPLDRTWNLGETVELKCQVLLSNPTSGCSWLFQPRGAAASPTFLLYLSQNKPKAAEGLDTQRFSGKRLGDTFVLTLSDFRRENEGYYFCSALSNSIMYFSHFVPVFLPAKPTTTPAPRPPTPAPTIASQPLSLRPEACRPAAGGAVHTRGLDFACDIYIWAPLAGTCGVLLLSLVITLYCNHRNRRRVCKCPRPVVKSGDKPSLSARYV
Experimental: as §1

[4] = target: T2, cynomolgus monkey CD8A on primary …; assay: flow cytometry, cyno CD8+ T cells, 0.2 uM FN3
Experimental: as §1

[5] = target: T3, human CD8 alpha (CD8A) on primary human …; assay: flow cytometry, human CD8+ T cells, 0.2 uM FN3
Experimental: as §1

T1 sequence (P01732 22-182 limits assumed): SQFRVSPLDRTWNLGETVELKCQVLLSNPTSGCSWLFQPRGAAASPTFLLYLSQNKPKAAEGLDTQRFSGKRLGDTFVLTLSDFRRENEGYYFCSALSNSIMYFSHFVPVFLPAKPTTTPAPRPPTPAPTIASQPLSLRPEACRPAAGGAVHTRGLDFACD

koff [1] [s⁻¹] | Cyno T-cell Binding 2 uM (MFI) [2] [MFI] | Human T-cell Binding 2 uM (MFI) [3] [MFI] | Cyno T-cell Binding 0.2 uM (MFI) [4] [MFI] | Human T-cell Binding 0.2 uM (MFI) [5] [MFI] | Binder
0.000335 | 37200 | 16500 | 9080 | 3740 | P283BR9P1363_C8 (designed binder, FN3 domain) LPAPKNLVVSRVTEDSARLSWAKTSDLHPLFDSFLIQYQESEKVGEAIVLTVPGSERSYDLTGLKPGTEYTVSIYGVDVKWEGNRPVASNPLSAIFTT
0.000127 | 41600 | 16800 | 7060 | 4220 | P282BR9P1357_C4 (designed binder, FN3 domain) LPAPNNLVVSRVTEDSARLSWPFVSQNKPHFDSFLIQYQESEKVGEAIVLTVPGSERSYDLTGLKPGTEYTVSIYGVDVKWEGNRPVASNPLSAIFTT
0.000329 | 17700 | 10800 | 2470 | 2500 | P283BR9P1363_E4 (designed binder, FN3 domain) LPAPKNLVVSRVTEDSARLSWIKSETSQPAFDSFLIQYQESEKVGEAIVLTVPGSERSYDLTGLKPGTEYTVSIYGVDVKWEGNRPVASNPLSAIFTT
0.000285 | 27100 | 11100 | 5700 | 3030 | P282BR9P1357_H3 (designed binder, FN3 domain) LPAPKNLVVSRVTEDSARLSWKKREYQDPGFDSFLIQYQESEKVGEAIVLTVPGSERSYDLTGLKPGTEYTVSIYGVDVKWEGNRPVASNPLSAIFTT
0.000269 | 37700 | 14500 | 6840 | 3450 | P283BR9P1363_B6 (designed binder, FN3 domain) LPAPKNLVVSRVTEDSARLSWQRHSDAHPLFDSFLIQYQESEKVGEAIVLTVPGSERSYDLTGLKPGTEYTVSIYGVDVKWEGNRPVASNPLSAIFTT
9.02e-05 | 114000 | 48900 | 34700 | 8480 | P282DR9P1359_F5 (designed binder, FN3 domain) LPAPKNLVVSRVTEDSARLSWTAPDAAFDSFQIAYPEWPPPGEAIVLTVPGSERSYDLTGLKPGTEYFVIIQGVKGGVESWPLSAIFTT
0.000638 | 70300 | 21100 | 7770 | 2110 | P282DR9P1359_A8 (designed binder, FN3 domain) LPAPKNLVVSRVTEDSARLSWTAPDAAFDSFRIAYPEWPVQGEAIVLTVPGSERSYDLTGLKPGTEYFVIIYGVKGGELSPPLSAIFTT
0.000637 | 85700 | 24400 | 13700 | 3070 | P282CR9P1358_F5 (designed binder, FN3 domain) LPAPKNLVVSRVTEDSARLSWTAPDAAFDSFWISYPEWPPDGEAIVLTVPGSERSYDLTGLKPGTEYFVIIWGVKGGETSAPLSAIFTT
0.000311 | 74100 | 28600 | 4070 | 2760 | P282CR9P1358_D10 (designed binder, FN3 domain) LPAPKNLVVSRVTEDSARLSWTAPDAAFDSFLISYPEYPPPGEAIVLTVPGSERSYDLTGLKPGTEYFVIIFGVKGGDTSWPLSAIFTT
0.00113 | 55800 | 10100 | 7050 | 1060 | P282CR9P1358_C2 (designed binder, FN3 domain) LPAPKNLVVSRVTEDSARLSWTAPDAAFDSFKIAYPEWPSNGEAIVLTVPGSERSYDLTGLKPGTEYAVFIWGVKGGAFSNPLSAIFTT
8.12e-05 | 88000 | 32200 | 15500 | 5950 | P282DR9P1359_A12 (designed binder, FN3 domain) LPAPKNLVVSRVTEDSARLSWTAPEAAFDSFQIAYPEWPPPREAIVLTVPGSERSYDLTGLKPGTEYFVVIQGVKGGEISWPLSAIFTT
0.000999 | 25700 | 2710 | 1830 | 511 | P282CR9P1358_C5 (designed binder, FN3 domain) LPAPKNLVVSRVTEDSARLSWTAPDAAFDSFLIAYPEWPDSGEAIVLTVPGSERSYDLTGLKPGTEYAVFIWGVKGGPLSHPLSAIFTT
0.00105 | 25800 | 9610 | 2520 | 1570 | P282BR9P1357_D2 (designed binder, FN3 domain) LPAPKNLVVSRVTEDSARLSWIKDGHPRHFDSFLIQYQESEKVGEAIVLTVPGSERSYDLTGLKPGTEYTVSIYGVDVVYDRGQLISSNPLSAIFTT
0.0001 | 18000 | 5930 | 3840 | 2880 | P282BR9P1357_B2 (designed binder, FN3 domain) LPAPKNLVVSRVTEDSARLSWNPSEDPQRFDSFLIQYQESEKVGEAIVLTVPGSERSYDLTGLKPGTEYTVSIYGVDVKWEGNRPVASNPLSAIFTT
0.000458 | 24500 | 9780 | 5110 | 2900 | P282BR9P1357_C10 (designed binder, FN3 domain) LPAPKNLVVSRVTEDSARLSWWSNDNRPIFDSFLIQYQESEKVGEAIVLTVPGSERSYDLTGLKPGTEYTVSIYGVDVKWEGNRPVASNPLSAIFTT
0.00021 | 10600 | 6730 | 4100 | 2590 | P282BR9P1357_E5 (designed binder, FN3 domain) LPAPKNLVVSRVTEDSARLSWWPRKYQRPFDSFLIQYQESEKVGEAIVLTVPGSERSYDLTGLKPGTEYTVSIYGVDIEWIGNRPIASNPLSAIFTT
0.00036 | 27800 | 7890 | 4100 | 2750 | P283BR9P1363_A10 (designed binder, FN3 domain) LPAPKNLVVSRVTEDSARLSWQRADDILPYFDSFLIQYQESEKVGEAIVLTVPGSERSYDLTGLKPGTEYTVSIYGVDVKYDIDSRPISSNPLSAIFTT
0.000208 | 14800 | 8360 | 2820 | 2400 | P283BR9P1363_B2 (designed binder, FN3 domain) LPAPKNLVVSRVTEDSARLSWASTVDPHPRFDSFLIQYQESEKVGEAIVLTVPGSERSYDLTGLKPGTEYTVSIYGVDVKYDIDSRPISSNPLSAIFTT
0.000304 | 41500 | 12700 | 4640 | 2800 | P282BR9P1357_G9 (designed binder, FN3 domain) LPAPKNLVVSRVTEDSARLSWPIASQIHSPFDSFLIQYQESEKVGEAIVLTVPGSERSYDLTGLKPGTEYTVSIYGVDVKYDIDSRPISSNPLSAIFTT
8.76e-05 | 40400 | 15300 | 7360 | 3900 | P282BR9P1357_D12 (designed binder, FN3 domain) LPAPKNLVVSRVTEDSARLSWGQYITAFSFDSFLIQYQESEKVGEAIVLTVPGSERSYDLTGLKPGTEYTVSIYGVDVAWFQGKPTWSNPLSAIFTT
